This is an account of results in publication PMC4201622.

In series [1] the target is RPA heterotrimer (RPA70/RPA32/RPA14), full length (UniProt P27694;P15927;P35244 1-616;1-270;1-121). Description: EMSA. Background: A gel shift assay detects complexes by their altered migration in electrophoresis.
Series [2] deals with RPA70 DBD-F (N-terminal domain) fused to MBP (UniProt P27694 1-120). In words: EMSA.
Chain of RPA70 DBD-F (N-terminal domain) fused to MBP (P27694 1-120): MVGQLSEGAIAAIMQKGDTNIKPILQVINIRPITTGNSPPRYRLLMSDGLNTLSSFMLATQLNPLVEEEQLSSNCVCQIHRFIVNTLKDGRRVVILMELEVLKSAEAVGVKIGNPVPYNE

Chain of RPA heterotrimer (RPA70/RPA32/RPA14), full length (P27694 whole entry, chain 1 of 3, the tested form may be a part): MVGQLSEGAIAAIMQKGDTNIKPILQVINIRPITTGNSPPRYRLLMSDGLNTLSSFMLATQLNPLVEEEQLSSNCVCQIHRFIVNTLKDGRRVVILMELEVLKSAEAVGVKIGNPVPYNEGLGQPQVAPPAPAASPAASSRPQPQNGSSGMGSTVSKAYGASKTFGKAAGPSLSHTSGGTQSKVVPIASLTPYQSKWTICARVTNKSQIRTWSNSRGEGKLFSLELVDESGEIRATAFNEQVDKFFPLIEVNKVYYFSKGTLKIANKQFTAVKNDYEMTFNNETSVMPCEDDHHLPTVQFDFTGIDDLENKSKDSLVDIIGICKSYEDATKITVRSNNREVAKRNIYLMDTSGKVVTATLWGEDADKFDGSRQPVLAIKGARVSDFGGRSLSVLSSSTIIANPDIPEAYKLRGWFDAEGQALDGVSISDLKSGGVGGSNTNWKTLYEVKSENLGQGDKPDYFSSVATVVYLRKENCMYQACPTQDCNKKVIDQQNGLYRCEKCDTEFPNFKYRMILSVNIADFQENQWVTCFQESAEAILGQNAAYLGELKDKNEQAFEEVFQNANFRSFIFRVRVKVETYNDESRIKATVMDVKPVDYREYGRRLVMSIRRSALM
Chain of RPA heterotrimer (RPA70/RPA32/RPA14), full length (P15927 whole entry, chain 2 of 3, the tested form may be a part): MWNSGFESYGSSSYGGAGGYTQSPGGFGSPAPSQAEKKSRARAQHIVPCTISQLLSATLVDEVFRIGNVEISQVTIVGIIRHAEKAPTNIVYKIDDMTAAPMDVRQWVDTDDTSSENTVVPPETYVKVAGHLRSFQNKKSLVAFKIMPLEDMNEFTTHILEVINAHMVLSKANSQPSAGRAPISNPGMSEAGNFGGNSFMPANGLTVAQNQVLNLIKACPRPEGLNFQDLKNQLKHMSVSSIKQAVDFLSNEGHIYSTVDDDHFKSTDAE
Chain of RPA heterotrimer (RPA70/RPA32/RPA14), full length (P35244 whole entry, chain 3 of 3, the tested form may be a part): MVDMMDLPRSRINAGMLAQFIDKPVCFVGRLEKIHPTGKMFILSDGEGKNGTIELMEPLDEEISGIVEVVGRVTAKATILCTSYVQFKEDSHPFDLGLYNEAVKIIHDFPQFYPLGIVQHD

B1: polyT 30mer (ssDNA)
DNA: TTTTTTTTTTTTTTTTTTTTTTTTTTTTTT
As for B1, the binding result in series [1] and in series [2] was “binds” throughout.
